Source: patent publication US20260356924 (published 2026)
Where a chain is given by its changes, count along the chain named.

B1: hV0022 control (antibody, V domains shown)
VH: QVQLQQPGTELVKPGSSVNLSCKASGFTFTRYWMHWVKERPGHGLEWIGNINPNNGGTDFNEKFKNKATLTVHKSSTTVFIQLSSLTSEDSAVYYCARGTGTGAMDYWGQGTSVTVSS
VL: DVVMTQTPLSLPVSLGDQASISCRSSQSLVHNNGITYLYWYLQKPGQSPKLLIYRVSNRFSGVPDRFGGSGSGTDFTLKISRVEAEDLGVYFCFQGTHVPRTFGGGTKLEIK
modifications: immunopurified paired helical filament tau, hyperphosphorylated
B2: Ab7 (antibody, V domains shown)
VH: QVQLVQSGAEVKKPGASVKVSCKASGFTFTRYWMHWVRERPGHGLEWIGNINPNNGGTDFNEKFKNRVTMTVHKSISTAYMELSSLRSDDSAVYYCARGTGTGAMDYWGQGTLVTVSS
VL: DVVMTQSPLSLPVTLGQPASISCRSSQSLVHNNGITYLYWYQQRPGQSPRLLIYRVSNRFSGVPDRFSGSGSGTDFTLKISRVEAEDVGVYYCFQGTHVPRTFGQGTKLEIK
modifications: immunopurified paired helical filament tau, hyperphosphorylated
B3: Ab11 (antibody, V domains shown)
VH: QVQLVQSGAEVKKPGASVKVSCKASGFTFTRYWMHWVKERPGQGLEWMGNINPNNGGTDFNEKFKNRVTMTVHKSTSTVFIQLSSLRSEDTAVYYCARGTGTGAMDYWGQGTSVTVSS
VL: B2 VL
modifications: immunopurified paired helical filament tau, hyperphosphorylated
B4: Ab1 (antibody, V domains shown)
VH: QVQLVQSGAEVKKSGASVKVSCKASGFTFTRYWMHWVRQAPGQGLEWIGNINPNNGGTDFNEKFKNRVTLIRDTSTTTVFIQLTSLTSEDSAVYYCARGTGTGAMDYWGQGTLVTVSS
VL: B2 VL with V2I, P12S, L15P, Q42L, R44K, R50Q, L109V
modifications: immunopurified paired helical filament tau, hyperphosphorylated
B5: Ab4 (antibody, V domains shown)
VH: B3 VH
VL: B2 VL with V2I, P12S, L15P, Q42L, R44K, R50Q, L109V
modifications: immunopurified paired helical filament tau, hyperphosphorylated
B6: Ab5 (antibody, V domains shown)
VH: B3 VH
VL: B2 VL with V2I, S7T, L11S, S48P, S72A, S81N, Y92F
modifications: immunopurified paired helical filament tau, hyperphosphorylated
B7: Ab9 (antibody, V domains shown)
VH: B2 VH with Q1E, A16S, R38K, S77T, S85R, R87T, T115S
VL: B2 VL with V2I, P12S, L15P, Q42L, R44K, R50Q, L109V
modifications: immunopurified paired helical filament tau, hyperphosphorylated
B8: Ab8 (antibody, V domains shown)
VH: B4 VH
VL: B2 VL
modifications: immunopurified paired helical filament tau, hyperphosphorylated
B9: Ab3 (antibody, V domains shown)
VH: B2 VH with Q1E, A16S, R38K, S77T, S85R, R87T, T115S
VL: B2 VL
modifications: immunopurified paired helical filament tau, hyperphosphorylated
B10: Ab6 (antibody, V domains shown)
VH: B2 VH with Q6E, R38K, I48M, M70I, I76A, D89E, S91T, L113T
VL: B2 VL with V2I, P12S, L15P, Q42L, R44K, R50Q, L109V
modifications: immunopurified paired helical filament tau, hyperphosphorylated

Target: iPHF (human, UniProt P10636)
Sequence (P10636 2-758): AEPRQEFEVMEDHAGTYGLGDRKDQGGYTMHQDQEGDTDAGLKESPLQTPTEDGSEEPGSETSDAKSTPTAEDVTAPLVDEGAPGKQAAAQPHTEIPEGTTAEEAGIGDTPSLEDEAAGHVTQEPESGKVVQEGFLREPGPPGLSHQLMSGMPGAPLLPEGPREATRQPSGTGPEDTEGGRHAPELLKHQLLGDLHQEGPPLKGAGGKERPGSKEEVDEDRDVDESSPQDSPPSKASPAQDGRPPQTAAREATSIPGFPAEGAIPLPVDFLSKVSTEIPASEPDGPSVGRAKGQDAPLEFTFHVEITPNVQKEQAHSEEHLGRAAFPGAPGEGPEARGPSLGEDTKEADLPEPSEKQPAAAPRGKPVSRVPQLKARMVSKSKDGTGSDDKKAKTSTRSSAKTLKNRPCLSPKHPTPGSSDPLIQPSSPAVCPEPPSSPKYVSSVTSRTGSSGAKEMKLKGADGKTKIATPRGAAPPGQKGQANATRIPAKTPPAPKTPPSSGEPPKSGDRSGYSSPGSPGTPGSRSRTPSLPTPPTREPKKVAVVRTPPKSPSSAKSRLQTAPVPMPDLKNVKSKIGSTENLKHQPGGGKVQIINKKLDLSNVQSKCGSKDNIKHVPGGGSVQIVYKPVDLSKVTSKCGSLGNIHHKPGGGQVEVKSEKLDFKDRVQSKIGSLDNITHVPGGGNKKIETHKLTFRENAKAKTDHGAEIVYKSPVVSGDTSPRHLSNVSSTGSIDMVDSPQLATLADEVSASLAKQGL
Experiment: SPR

Binder	Kd
B1	0.0162 nM
B2	0.0334 nM
B3	0.0249 nM
B4	0.0434 nM
B5	0.0353 nM
B6	0.0248 nM
B7	0.044 nM
B8	0.0496 nM
B9	0.0325 nM
B10	0.0391 nM
